Results from patent US20240398942A1 (CHIA TAI TIANQING PHARMACEUTICAL GROUP, published 2024).

Target: T1, cynomolgus monkey CD40-his protein (Acro biosystems, Cat. No. CD0-C52H6) (cynomolgus monkey, UniProt G7PG38 21-193)
T1 construct: Bought protein; not shown: His tag
Assay: SPR (Biacore T200), antibody captured, CD40-his as analyte, 1:1 fit

Kd: 377 pM
koff: 0.000863 s⁻¹
kon: 2.29e+06 M⁻¹ s⁻¹
B1: mouse anti-CD40 monoclonal antibody C1H1 (antibody, V domains shown)
VH: EVKLVESGGGLVKPGASLKLSCAASGFTFSNYGISWVRQTSDKRLEWVASISSGGDNTYYPDNVKGRFTISRENAKNTLYLQMSSLKSEDTALYYCARAGEKAMDYWGQGTSVTVSS
VL: DIVLTQSPVTLSVTPGDSVSLSCRASQTINNNLHWYQQKSHESPRLLIKYASQSISGIPSRFSGSGSGTDFTLSINSVETEDFGIYFCQQFSSWPLTFGAGTKLELK
notes: Parent mouse antibody from a hybridoma; the mouse constant regions are not; also called Mouse C1H1
